Results on one protein are retold here after paper PMC6097932 (Molecular cell, 2018).

The data set concerns the molecule itself. The data set can be described thus: SEC. In general terms: SEC sorts molecules by how far they enter the pores of the column.

B1: FANCA-WT (natural protein, human, UniProt O15360 1-1455, looked up)
chain: MSDSWVPNSASGQDPGGRRRAWAELLAGRVKREKYNPERAQKLKESAVRLLRSHQDLNALLLEVEGPLCKKLSLSKVIDCDSSEAYANHSSSFIGSALQDQASRLGVPVGILSAGMVASSVGQICTAPAETSHPVLLTVEQRKKLSSLLEFAQYLLAHSMFSRLSFCQELWKIQSSLLLEAVWHLHVQGIVSLQELLESHPDMHAVGSWLFRNLCCLCEQMEASCQHADVARAMLSDFVQMFVLRGFQKNSDLRRTVEPEKMPQVTVDVLQRMLIFALDALAAGVQEESSTHKIVRCWFGVFSGHTLGSVISTDPLKRFFSHTLTQILTHSPVLKASDAVQMQREWSFARTHPLLTSLYRRLFVMLSAEELVGHLQEVLETQEVHWQRVLSFVSALVVCFPEAQQLLEDWVARLMAQAFESCQLDSMVTAFLVVRQAALEGPSAFLSYADWFKASFGSTRGYHGCSKKALVFLFTFLSELVPFESPRYLQVHILHPPLVPGKYRSLLTDYISLAKTRLADLKVSIENMGLYEDLSSAGDITEPHSQALQDVEKAIMVFEHTGNIPVTVMEASIFRRPYYVSHFLPALLTPRVLPKVPDSRVAFIESLKRADKIPPSLYSTYCQACSAAEEKPEDAALGVRAEPNSAEEPLGQLTAALGELRASMTDPSQRDVISAQVAVISERLRAVLGHNEDDSSVEISKIQLSINTPRLEPREHMAVDLLLTSFCQNLMAASSVAPPERQGPWAALFVRTMCGRVLPAVLTRLCQLLRHQGPSLSAPHVLGLAALAVHLGESRSALPEVDVGPPAPGAGLPVPALFDSLLTCRTRDSLFFCLKFCTAAISYSLCKFSSQSRDTLCSCLSPGLIKKFQFLMFRLFSEARQPLSEEDVASLSWRPLHLPSADWQRAALSLWTHRTFREVLKEEDVHLTYQDWLHLELEIQPEADALSDTERQDFHQWAIHEHFLPESSASGGCDGDLQAACTILVNALMDFHQSSRSYDHSENSDLVFGGRTGNEDIISRLQEMVADLELQQDLIVPLGHTPSQEHFLFEIFRRRLQALTSGWSVAASLQRQRELLMYKRILLRLPSSVLCGSSFQAEQPITARCEQFFHLVNSEMRNFCSHGGALTQDITAHFFRGLLNACLRSRDPSLMVDFILAKCQTKCPLILTSALVWWPSLEPVLLCRWRRHCQSPLPRELQKLQEGRQFASDFLSPEAASPAPNPDWLSAAALHFAIQQVREENIRKQLKKLDCEREELLVFLFFFSLMGLLSSHLTSNSTTDLPKAFHVCAAILECLEKRKISWLALFQLTESDLRLGRLLLRVAPDQHTRLLPFAFYSLLSYFHEDAAIREEAFLHVAVDMYLKLVQLFVAGDTSTVSPPAGRSLELKGQGNPVELITKARLFLLQLIPRCPKKSFSHVAELLADRGDCDPEVSAALQSRQQAAPDADLSQEPHLF
B1: the stoichiometry N (usually a count of units in the complex or per binding partner) stood at 2.
